The text below walks through data of patent publication US7135457.

Assay [1] has as its target T1, human D2H transporter receptor domain, amino acid residues 387-685, His-tag fusion protein (human), Q07837.
T1 chain: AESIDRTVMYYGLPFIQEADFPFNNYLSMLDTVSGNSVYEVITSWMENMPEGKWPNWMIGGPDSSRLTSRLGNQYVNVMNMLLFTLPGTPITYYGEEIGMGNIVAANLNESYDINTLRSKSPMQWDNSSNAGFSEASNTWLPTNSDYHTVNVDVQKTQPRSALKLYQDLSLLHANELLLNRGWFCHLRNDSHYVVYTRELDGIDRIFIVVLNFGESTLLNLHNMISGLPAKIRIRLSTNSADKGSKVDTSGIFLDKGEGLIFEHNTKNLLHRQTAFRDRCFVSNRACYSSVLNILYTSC
Kind of assay: phage ELISA, coated D2H domain. (In an ELISA, binding on a coated surface is turned into a signal by an enzyme label.)

The target in assay [2] is T1, human D2H transporter receptor domain, …. Kind of assay: phage ELISA, OD on D2H over OD on BSA.
Assay [3] deals with T2, human sucrase-isomaltase complex (hSI) receptor domain, amino acid residues 272-667, His-tag fusion protein (human), P14410. Kind of assay: phage ELISA, coated hSI domain.
T2 sequence (P14410 272-667, one chain of several): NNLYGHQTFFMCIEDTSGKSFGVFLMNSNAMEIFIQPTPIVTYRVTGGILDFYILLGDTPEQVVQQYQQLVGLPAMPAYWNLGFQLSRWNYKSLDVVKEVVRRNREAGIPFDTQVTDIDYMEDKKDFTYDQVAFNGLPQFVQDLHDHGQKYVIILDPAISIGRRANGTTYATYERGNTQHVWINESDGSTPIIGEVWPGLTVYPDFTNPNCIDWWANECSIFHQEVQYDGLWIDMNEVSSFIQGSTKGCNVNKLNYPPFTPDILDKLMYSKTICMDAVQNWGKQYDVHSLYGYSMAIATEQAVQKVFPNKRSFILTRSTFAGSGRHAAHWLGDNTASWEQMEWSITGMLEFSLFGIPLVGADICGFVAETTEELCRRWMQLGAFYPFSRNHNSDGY
Assay [4] deals with T2, human sucrase-isomaltase complex (hSI) …. The experiment in a line: phage ELISA, OD on hSI over OD on BSA.

In the case of SWSSWNWSSKTTRLGDRATREGCGPSQSDGCPYNGRLTTVKPRT (modifications not checked) [phage DCX36], the OD in assay [1] was 0.293 OD 650 nm. Further, the D2H/BSA in assay [2] was found to be 5.

In assay [3], SPRSFWPVVSRHESFGISNYLGCGYRTCISGTMTKSSPIYPRHS (modifications not checked) [phage S21] came in with an OD of 0.845 OD 650 nm. In assay [4], the hSI/BSA stood at 9.
